Measured values from patent publication US20220280615A1.

B1: iTEP28-IBD (designed binder)
chain: GVLPGVGGVLPGVGGVLPGVGGVLPGVGGVLPGVGGVLPGVGGVLPGVGGVLPGVGGVLPGVGGVLPGVGGVLPGVGGVLPGVGGVLPGVGGVLPGVGGVLPGVGGVLPGVGGVLPGVGGVLPGVGGVLPGVGGVLPGVGGVLPGVGGVLPGVGGVLPGVGGVLPGVGGVLPGVGGVLPGVGGVLPGVGGVLPGVGGGGGSTTYKLVINGKTLKGETTTKAVDAETAEKAFKQYANDNGVDGVWTYDDATKTFTVTE
B2: iTEP112-IBD (designed binder)
chain: GVLPGVGGVLPGVGGVLPGVGGVLPGVGGVLPGVGGVLPGVGGVLPGVGGVLPGVGGVLPGVGGVLPGVGGVLPGVGGVLPGVGGVLPGVGGVLPGVGGVLPGVGGVLPGVGGVLPGVGGVLPGVGGVLPGVGGVLPGVGGVLPGVGGVLPGVGGVLPGVGGVLPGVGGVLPGVGGVLPGVGGVLPGVGGVLPGVGGVLPGVGGVLPGVGGVLPGVGGVLPGVGGVLPGVGGVLPGVGGVLPGVGGVLPGVGGVLPGVGGVLPGVGGVLPGVGGVLPGVGGVLPGVGGVLPGVGGVLPGVGGVLPGVGGVLPGVGGVLPGVGGVLPGVGGVLPGVGGVLPGVGGVLPGVGGVLPGVGGVLPGVGGVLPGVGGVLPGVGGVLPGVGGVLPGVGGVLPGVGGVLPGVGGVLPGVGGVLPGVGGVLPGVGGVLPGVGGVLPGVGGVLPGVGGVLPGVGGVLPGVGGVLPGVGGVLPGVGGVLPGVGGVLPGVGGVLPGVGGVLPGVGGVLPGVGGVLPGVGGVLPGVGGVLPGVGGVLPGVGGVLPGVGGVLPGVGGVLPGVGGVLPGVGGVLPGVGGVLPGVGGVLPGVGGVLPGVGGVLPGVGGVLPGVGGVLPGVGGVLPGVGGVLPGVGGVLPGVGGVLPGVGGVLPGVGGVLPGVGGVLPGVGGVLPGVGGVLPGVGGVLPGVGGVLPGVGGVLPGVGGVLPGVGGVLPGVGGVLPGVGGVLPGVGGVLPGVGGVLPGVGGVLPGVGGVLPGVGGVLPGVGGVLPGVGGVLPGVGGVLPGVGGGGGSTTYKLVINGKTLKGETTTKAVDAETAEKAFKQYANDNGVDGVWTYDDATKTFTVTE
B3: iTEP56-IBD (designed binder)
chain: GVLPGVGGVLPGVGGVLPGVGGVLPGVGGVLPGVGGVLPGVGGVLPGVGGVLPGVGGVLPGVGGVLPGVGGVLPGVGGVLPGVGGVLPGVGGVLPGVGGVLPGVGGVLPGVGGVLPGVGGVLPGVGGVLPGVGGVLPGVGGVLPGVGGVLPGVGGVLPGVGGVLPGVGGVLPGVGGVLPGVGGVLPGVGGVLPGVGGVLPGVGGVLPGVGGVLPGVGGVLPGVGGVLPGVGGVLPGVGGVLPGVGGVLPGVGGVLPGVGGVLPGVGGVLPGVGGVLPGVGGVLPGVGGVLPGVGGVLPGVGGVLPGVGGVLPGVGGVLPGVGGVLPGVGGVLPGVGGVLPGVGGVLPGVGGVLPGVGGVLPGVGGVLPGVGGVLPGVGGVLPGVGGVLPGVGGVLPGVGGGGGSTTYKLVINGKTLKGETTTKAVDAETAEKAFKQYANDNGVDGVWTYDDATKTFTVTE

Target: Human IgG (polyclonal, Innovative Research) (human)
Assay: depot trapping: polypeptide mixed with fluorescein-labeled human IgG (1 mg/mL), 37 °C, centrifuged, pellet fluorescence; molar ratio 8 or higher

| Binder | percent of IgG in depots [%] |
| --- | --- |
| B1 | 55 |
| B2 | 90 |
| B3 | 90 |
